In patent US20190381086:

Target: Ubc12^N8 made with wild type Ubc12 (thioester-linked to NEDD8), purified, P61081
Sequence (P61081 whole entry, looked up): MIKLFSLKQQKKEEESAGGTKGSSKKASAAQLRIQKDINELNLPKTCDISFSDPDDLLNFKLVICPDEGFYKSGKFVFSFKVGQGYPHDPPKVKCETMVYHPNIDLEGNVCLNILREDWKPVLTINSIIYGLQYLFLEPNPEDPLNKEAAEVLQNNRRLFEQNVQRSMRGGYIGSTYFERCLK

B1: full-length human GlyRS (protein)
chain: MDGAGAEEVLAPLRLAVRQQGDLVRKLKEDKAPQVDVDKAVAELKARKRVLEAKELALQPKDDIVDRAKMEDTLKRRFFYDQAFAIYGGVSGLYDFGPVGCALKNNIIQTWRQHFIQEEQILEIDCTMLTPEPVLKTSGHVDKFADFMVKDVKNGECFRADHLLKAHLQKLMSDKKCSVEKKSEMESVLAQLDNYGQQELADLFVNYNVKSPITGNDLSPPVSFNLMFKTFIGPGGNMPGYLRPETAQGIFLNFKRLLEFNQGKLPFAAAQIGNSFRNEISPRSGLIRVREFTMAEIEHFVDPSEKDHPKFQNVADLHLYLYSAKAQVSGQSARKMRLGDAVEQGVINNTVLGYFIGRIYLYLTKVGISPDKLRFRQHMENEMAHYACDCWDAESKTSYGWIEIVGCADRSCYDLSCHARATKVPLVAEKPLKEPKTVNVVQFEPSKGAIGKAYKKDAKLVMEYLAICDECYITEMEMLLNEKGEFTIETEGKTFQLTKDMINVKRFQKTLYVEEVVPNVIEPSFGLGRIMYTVFEHTFHVREGDEQRTFFSFPAVVAPFKCSVLPLSQNQEFMPFVKELSEALTRHGVSHKVDDSSGSIGRRYARTDEIGVAFGVTIDFDTVNKTPHTATLRDRDSMRQIRAEISELPSIVQDLANGNITWADVEARYPLFEGQETGKKETIEE
In the case of B1, the “stability (half-life) of Ubc12^N8 in vitro at 37°, SDS-PAGE” value is reported as “In the presence of GlyRS, but not BSA, Ubc12^N8 was significantly more stable than in the absence of GlyRS”.
